One data set deals with PARylated PARP2 (human, UniProt Q9UGN5-2 1-570, poly(ADP-ribose) chains added by in vitro automodification; modified residues not stated). The data set can be described thus: ITC.
A further data set addresses PARP1 full length (Homo sapiens, UniProt P09874 1-1014). Put plainly: fluorescence polarization. (In general: Fluorescence polarisation rises when a labelled molecule tumbles more slowly, as on binding a larger partner.)
Another data set addresses ZnF(1-2-3)-BRCT PARP1 (Homo sapiens, UniProt P09874 1-494). Put plainly: fluorescence polarization.

Sequence of PARP1 full length (P09874 whole entry): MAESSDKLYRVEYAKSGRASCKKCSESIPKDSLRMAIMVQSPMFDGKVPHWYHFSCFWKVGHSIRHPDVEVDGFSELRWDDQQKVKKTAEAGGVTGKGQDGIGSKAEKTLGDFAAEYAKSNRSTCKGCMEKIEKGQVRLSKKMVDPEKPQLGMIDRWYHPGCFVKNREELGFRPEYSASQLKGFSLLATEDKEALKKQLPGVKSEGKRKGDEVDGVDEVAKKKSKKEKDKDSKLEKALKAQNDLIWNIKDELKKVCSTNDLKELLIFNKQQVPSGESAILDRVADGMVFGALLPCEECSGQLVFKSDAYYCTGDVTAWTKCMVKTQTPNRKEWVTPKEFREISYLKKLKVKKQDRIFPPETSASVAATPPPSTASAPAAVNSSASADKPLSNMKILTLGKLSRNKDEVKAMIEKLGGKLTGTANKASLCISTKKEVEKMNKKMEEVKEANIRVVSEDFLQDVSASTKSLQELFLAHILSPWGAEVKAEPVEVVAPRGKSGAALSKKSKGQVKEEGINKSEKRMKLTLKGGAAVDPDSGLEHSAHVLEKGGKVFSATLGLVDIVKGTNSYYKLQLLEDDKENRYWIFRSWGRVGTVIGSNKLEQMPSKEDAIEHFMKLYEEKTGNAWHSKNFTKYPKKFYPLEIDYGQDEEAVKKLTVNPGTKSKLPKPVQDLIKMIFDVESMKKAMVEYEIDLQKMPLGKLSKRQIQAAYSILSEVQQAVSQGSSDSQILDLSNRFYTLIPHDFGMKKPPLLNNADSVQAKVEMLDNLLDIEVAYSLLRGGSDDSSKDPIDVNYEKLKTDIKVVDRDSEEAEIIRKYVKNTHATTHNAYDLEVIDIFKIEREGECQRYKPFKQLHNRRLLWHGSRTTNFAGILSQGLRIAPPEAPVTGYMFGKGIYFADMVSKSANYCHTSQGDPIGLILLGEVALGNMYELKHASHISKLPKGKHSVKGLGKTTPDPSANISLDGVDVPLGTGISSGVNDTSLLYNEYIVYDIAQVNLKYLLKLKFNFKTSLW
Sequence of ZnF(1-2-3)-BRCT PARP1 (P09874 1-494): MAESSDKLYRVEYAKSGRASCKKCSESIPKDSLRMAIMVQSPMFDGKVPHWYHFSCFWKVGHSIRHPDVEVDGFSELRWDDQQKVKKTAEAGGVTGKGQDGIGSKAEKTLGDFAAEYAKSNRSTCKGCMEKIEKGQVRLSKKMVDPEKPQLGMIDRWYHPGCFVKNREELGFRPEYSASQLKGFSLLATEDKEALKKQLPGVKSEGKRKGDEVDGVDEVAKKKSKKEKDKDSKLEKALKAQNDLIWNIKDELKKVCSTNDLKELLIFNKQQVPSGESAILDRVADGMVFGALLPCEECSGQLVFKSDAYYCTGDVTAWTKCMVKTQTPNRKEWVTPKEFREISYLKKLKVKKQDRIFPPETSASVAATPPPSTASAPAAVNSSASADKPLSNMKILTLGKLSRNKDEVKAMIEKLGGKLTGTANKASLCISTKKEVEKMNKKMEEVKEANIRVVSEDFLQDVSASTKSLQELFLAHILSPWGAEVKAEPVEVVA

One may read the Kd as the constant that tells how readily two partners part at equilibrium. In turn, “ZnF3 domain of PARP1 (domain or fragment)” displayed a Kd with PARylated PARP2 of 2000 nM.
The same measure, in the same setting: next, “WGR domain of PARP1 (domain or fragment)”: 3000 nM.
The same measure, in the same setting: then “BRCT domain of PARP1 (from UniProt P09874 385-476) (domain or fragment)”, with 2000 nM.

B1: ZnF3-BRCT-WGR of PARP1 (domain or fragment)
chain: VDEVAKKKSKKEKDKDSKLEKALKAQNDLIWNIKDELKKVCSTNDLKELLIFNKQQVPSGESAILDRVADGMVFGALLPCEECSGQLVFKSDAYYCTGDVTAWTKCMVKTQTPNRKEWVTPKEFREISYLKKLKVKKQDRIFPPETSASVAATPPPSTASAPAAVNSSASADKPLSNMKILTLGKLSRNKDEVKAMIEKLGGKLTGTANKASLCISTKKEVEKMNKKMEEVKEANIRVVSEDFLQDVSASTKSLQELFLAHILSPWGAEVKAEPVEVVAPRGKSGAALSKKSKGQVKEEGINKSEKRMKLTLKGGAAVDPDSGLEHSAHVLEKGGKVFSATLGLVDIVKGTNSYYKLQLLEDDKENRYWIFRSWGRVGTVIGSNKLEQMPSKEDAIEHFMKLYEEKTGNAWHSKNFTKYPKKFYPLEIDYGQDEEAVKKLTVNPGT
The molecule B1 came in with a Kd with PARylated PARP2 of 40 nM.
With GCTGGCTTCGTAAGAAGCCAGCTCGCGGTCAGCTTGCTGACCGCG (structured_DNA, 5'-phosphate (printed for unlabelled oligo)) [SSB DNA dumbbell 45-mer (5-FAM labelled)], the results for the Kd with PARP1 full length and with ZnF(1-2-3)-BRCT PARP1 were about 64 nM and about 70 nM, respectively.

B2: DSB DNA (5-FAM labelled) (dsDNA)
DNA 1: GCCTACCGGTTCGAATGGCAGC
DNA 2: GCTGCCATTCGAACCGGTAGGC
As to B2, the results for the Kd with PARP1 full length and with ZnF(1-2-3)-BRCT PARP1 were about 15 nM and about 88 nM, respectively.

The record behind these values is article doi:10.1101/2021.12.21.473685 (bioRxiv, 2021).
